{
  "source": "paper PMC2629732",
  "assay_in_all_cases": "EMSA",
  "key": {"[1]": {"biological_target": "T1, TAF3 (UniProt Q5HZG4 1-932)", "T1 sequence": "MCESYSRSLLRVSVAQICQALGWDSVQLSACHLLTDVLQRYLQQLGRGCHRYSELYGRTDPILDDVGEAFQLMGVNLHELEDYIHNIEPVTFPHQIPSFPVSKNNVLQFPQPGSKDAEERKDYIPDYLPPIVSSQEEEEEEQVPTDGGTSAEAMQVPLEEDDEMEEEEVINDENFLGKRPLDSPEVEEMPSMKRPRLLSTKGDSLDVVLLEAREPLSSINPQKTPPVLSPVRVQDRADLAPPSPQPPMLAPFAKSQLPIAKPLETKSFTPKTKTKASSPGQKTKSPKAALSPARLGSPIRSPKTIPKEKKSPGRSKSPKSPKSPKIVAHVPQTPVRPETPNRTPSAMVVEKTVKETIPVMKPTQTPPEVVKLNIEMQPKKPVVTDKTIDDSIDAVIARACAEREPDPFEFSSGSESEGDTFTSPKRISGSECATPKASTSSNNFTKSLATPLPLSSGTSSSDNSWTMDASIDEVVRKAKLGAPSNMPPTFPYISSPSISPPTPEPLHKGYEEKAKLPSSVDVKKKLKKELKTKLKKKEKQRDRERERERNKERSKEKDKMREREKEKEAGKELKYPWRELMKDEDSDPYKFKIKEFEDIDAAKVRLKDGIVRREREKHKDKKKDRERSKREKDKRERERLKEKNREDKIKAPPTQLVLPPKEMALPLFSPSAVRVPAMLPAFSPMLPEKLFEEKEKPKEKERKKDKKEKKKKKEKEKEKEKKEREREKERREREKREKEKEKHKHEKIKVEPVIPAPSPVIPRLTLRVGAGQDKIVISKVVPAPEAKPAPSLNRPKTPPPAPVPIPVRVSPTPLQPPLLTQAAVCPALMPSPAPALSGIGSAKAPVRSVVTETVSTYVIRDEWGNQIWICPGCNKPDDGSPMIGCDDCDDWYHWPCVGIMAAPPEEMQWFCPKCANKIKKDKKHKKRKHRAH"}, "[2]": {"biological_target": "T2, TRF3 (UniProt Q6SJ95 1-350)", "T2 sequence": "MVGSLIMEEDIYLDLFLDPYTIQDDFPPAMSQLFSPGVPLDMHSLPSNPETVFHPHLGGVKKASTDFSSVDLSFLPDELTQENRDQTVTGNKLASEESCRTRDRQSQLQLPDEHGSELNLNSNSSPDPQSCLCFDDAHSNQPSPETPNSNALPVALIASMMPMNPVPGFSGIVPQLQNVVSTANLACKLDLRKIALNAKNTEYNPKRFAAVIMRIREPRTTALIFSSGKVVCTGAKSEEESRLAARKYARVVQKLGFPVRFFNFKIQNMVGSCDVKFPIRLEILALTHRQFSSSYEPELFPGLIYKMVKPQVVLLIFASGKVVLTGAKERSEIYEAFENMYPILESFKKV"}, "[3]": {"biological_target": "T3, TAF3;TRF3 (mouse?;mouse?, UniProt Q5HZG4;Q6SJ95 1-932;1-350, |)", "T3 sequence 1": "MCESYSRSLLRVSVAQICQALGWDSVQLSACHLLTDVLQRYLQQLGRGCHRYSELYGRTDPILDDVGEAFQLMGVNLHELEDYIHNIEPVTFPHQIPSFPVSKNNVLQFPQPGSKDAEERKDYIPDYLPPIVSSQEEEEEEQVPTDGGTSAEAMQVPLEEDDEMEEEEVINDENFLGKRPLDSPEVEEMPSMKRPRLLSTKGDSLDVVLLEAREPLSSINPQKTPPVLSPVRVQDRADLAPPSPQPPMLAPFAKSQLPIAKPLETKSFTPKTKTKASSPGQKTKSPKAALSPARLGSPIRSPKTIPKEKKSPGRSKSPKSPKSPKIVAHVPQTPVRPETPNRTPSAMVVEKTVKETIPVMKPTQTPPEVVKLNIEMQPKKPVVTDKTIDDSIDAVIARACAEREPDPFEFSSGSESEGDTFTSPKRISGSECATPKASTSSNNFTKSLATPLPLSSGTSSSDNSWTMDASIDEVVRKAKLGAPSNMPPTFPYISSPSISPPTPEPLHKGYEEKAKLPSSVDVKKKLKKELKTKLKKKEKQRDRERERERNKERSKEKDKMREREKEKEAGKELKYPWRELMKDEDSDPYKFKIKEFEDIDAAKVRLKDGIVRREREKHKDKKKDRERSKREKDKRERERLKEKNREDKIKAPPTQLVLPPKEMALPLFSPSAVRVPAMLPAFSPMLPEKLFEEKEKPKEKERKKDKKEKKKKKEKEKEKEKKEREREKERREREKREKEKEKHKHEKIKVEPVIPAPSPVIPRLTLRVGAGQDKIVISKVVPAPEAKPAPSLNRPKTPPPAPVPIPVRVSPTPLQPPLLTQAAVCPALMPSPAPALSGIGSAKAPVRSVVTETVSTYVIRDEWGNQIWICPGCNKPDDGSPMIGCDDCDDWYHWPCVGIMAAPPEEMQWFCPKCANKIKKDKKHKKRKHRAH", "T3 sequence 2": "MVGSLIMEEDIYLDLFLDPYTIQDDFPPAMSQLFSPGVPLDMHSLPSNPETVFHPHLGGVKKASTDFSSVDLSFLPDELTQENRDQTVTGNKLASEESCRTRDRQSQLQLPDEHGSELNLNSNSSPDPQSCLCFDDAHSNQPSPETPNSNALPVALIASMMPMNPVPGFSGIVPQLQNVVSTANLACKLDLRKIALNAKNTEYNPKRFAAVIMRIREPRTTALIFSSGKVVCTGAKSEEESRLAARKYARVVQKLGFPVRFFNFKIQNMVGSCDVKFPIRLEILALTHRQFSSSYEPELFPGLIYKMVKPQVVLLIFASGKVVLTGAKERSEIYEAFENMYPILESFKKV"}},
  "data": [
    {"binder": "Myogenin TATA probe / TATA competitor (dsDNA) DNA 1: GAGGGTTTAAATGGCACCCAG DNA 2: CTGGGTGCCATTTAAACCCTC", "values": [
      {"measurement": "binding result", "setting": "[1]", "value": "no binding"},
      {"measurement": "binding result", "setting": "[2]", "value": "binds"},
      {"measurement": "binding result", "setting": "[3]", "value": "binds"}
    ]}
  ]
}
